Experimental data from patent US20190083612A1 (RINAT NEUROSCIENCE, published 2019).
Blank lines part the entries; values can stand above or below the molecule they belong to.

What was measured:
[1] = biological target: hu-FCGRI (hu-CD64) (human) (UniProt P12314); test: SPR (ProteOn NLC chip), 25 C, pH 7.4, n = 4
[2] = biological target: Cynomolgus Monkey-FCGRIIIa 42R (cynomolgus monkey) (UniProt Q8SPW2); test: SPR (ProteOn NLC chip), 25 C, pH 7.4, n = 3
[3] = biological target: Cynomolgus Monkey-FCGRIIa (cynomolgus monkey); test: SPR (ProteOn NLC chip), 25 C, pH 7.4, n = 3
[4] = biological target: Cynomolgus Monkey-FCGRIIIa 42S (cynomolgus monkey); test: SPR (ProteOn NLC chip), 25 C, pH 7.4, n = 3
[5] = biological target: hu-FcRn (human neonatal Fc receptor) (human) (UniProt P55899); test: SPR (ProteOn NLC chip), 25 C, pH 5.9, n = 3
[6] = biological target: Cynomolgus Monkey-FcRn (cynomolgus monkey) (UniProt Q8SPV9); test: SPR (ProteOn NLC chip), 25 C, pH 5.9, n = 3
[7] = biological target: hu-FCGRIIa (hu-CD32a) 131R (human) (UniProt P12318); test: SPR (ProteOn NLC chip), 25 C, pH 7.4
[8] = biological target: hu-FCGRIIa (hu-CD32a) 131H (human) (UniProt P12318); test: SPR (ProteOn NLC chip), 25 C, pH 7.4
[9] = biological target: hu-FCGRI (hu-CD64) (human) (UniProt P12314); test: SPR (ProteOn NLC chip), 25 C, pH 7.4
[10] = biological target: hu-FCGRIIb (hu-CD32b) (human) (UniProt P31994); test: SPR (ProteOn NLC chip), 25 C, pH 7.4
[11] = biological target: T1, mouse-PD-L2 (positive control of Example 12) (mouse, UniProt Q9WUL5 20-219, limits assumed); test: SPR, 25 C
T1 sequence (looked up): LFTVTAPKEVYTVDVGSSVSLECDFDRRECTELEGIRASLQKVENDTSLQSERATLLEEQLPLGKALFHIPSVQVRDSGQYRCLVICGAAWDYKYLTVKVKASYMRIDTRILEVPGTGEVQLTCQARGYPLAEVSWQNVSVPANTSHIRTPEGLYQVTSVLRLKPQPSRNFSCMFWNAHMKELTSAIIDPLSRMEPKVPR

[12] = biological target: mouse-PD-L1 (positive control of Example 12) (mouse, UniProt Q9EP73 19-238, limits assumed); test: SPR, 25 C
[13] = biological target: T2, rat PD-1 on primary rat T cells (rat, UniProt D3ZIN8 25-287); test: flow cytometry, activated rat T cells
T2 sequence: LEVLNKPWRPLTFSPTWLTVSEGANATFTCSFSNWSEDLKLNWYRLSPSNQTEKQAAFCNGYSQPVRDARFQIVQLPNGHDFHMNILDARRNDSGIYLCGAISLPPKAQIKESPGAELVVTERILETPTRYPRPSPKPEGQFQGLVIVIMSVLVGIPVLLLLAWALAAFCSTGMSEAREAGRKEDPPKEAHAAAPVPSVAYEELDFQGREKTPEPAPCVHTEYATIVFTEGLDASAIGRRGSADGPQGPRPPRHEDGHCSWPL

[14] = biological target: T3, human PD-1 (hPD-1) monomer (human, UniProt Q15116 25-167); test: SPR, human PD-1, 37 C
T3 construct: also called hu-PD-1; not shown: His tag (His-tagged monomer)
T3 sequence (Q15116 25-167 limits assumed): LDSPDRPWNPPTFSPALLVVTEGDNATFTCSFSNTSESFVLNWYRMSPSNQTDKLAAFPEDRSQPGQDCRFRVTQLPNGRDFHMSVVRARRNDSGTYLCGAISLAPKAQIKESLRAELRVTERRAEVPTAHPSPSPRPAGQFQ

hu-FCGRI (hu-CD64) (human), sequence (P12314 16-288 limits assumed): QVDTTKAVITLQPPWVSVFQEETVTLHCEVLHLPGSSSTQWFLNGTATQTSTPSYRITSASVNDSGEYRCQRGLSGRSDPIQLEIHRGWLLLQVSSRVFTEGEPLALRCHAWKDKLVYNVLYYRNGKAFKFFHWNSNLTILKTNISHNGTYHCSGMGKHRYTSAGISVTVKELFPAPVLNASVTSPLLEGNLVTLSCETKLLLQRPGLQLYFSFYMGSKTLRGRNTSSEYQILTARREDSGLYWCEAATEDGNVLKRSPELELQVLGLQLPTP
hu-FCGRIIa (hu-CD32a) 131R (human), sequence (P12318 36-218 H167R): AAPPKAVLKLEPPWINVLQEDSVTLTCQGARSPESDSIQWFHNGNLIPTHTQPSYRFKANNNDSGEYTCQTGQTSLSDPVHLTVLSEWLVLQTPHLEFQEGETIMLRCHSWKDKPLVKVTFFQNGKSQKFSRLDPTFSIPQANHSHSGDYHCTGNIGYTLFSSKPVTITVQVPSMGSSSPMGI
hu-FCGRIIa (hu-CD32a) 131H (human), sequence (P12318 36-218): as the sequence (P12318 36-218 H167R) above, with R132H counted along it
Cynomolgus Monkey-FcRn (cynomolgus monkey), sequence (Q8SPV9 24-297 limits assumed, form in doubt): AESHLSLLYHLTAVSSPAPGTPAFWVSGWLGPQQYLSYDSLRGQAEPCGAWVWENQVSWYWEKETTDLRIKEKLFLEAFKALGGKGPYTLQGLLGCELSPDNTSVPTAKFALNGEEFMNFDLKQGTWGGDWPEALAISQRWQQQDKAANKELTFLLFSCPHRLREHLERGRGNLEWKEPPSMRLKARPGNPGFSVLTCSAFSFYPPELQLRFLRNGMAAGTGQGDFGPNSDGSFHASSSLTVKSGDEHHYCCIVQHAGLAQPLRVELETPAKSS
Cynomolgus Monkey-FCGRIIIa 42R (cynomolgus monkey), sequence (Q8SPW2 17-208 limits assumed): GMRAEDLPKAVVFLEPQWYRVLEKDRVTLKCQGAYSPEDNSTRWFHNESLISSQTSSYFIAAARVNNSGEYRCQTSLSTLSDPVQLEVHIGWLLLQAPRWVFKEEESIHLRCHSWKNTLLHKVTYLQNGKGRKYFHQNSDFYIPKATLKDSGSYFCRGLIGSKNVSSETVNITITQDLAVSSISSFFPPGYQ
hu-FCGRIIb (hu-CD32b) (human), sequence (P31994 46-217): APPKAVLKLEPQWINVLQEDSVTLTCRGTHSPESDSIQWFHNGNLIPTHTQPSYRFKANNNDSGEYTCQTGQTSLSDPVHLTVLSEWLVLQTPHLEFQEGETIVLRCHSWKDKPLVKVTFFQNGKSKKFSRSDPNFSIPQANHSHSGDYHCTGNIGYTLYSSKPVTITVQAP

Kd [1]: 0.177 nM | Kd [2]: 3200 nM | Kd [3]: 2600 nM | Kd [4]: 1900 nM | Kd [5]: 820 nM | Kd [6]: 570 nM | Kd [7]: 400 nM | Kd [8]: 3900 nM | koff [9]: 0.0018 s⁻¹ | kon [9]: 1e+06 M⁻¹ s⁻¹ | Kd [10]: 700 nM
Molecule: Isotype-matched control, hu-IgG4 (antibody)

binding result [11]: binds | binding result [12]: binds
B1: rat-PD-1 (recombinant purified, Example 12) (receptor)
chain: LEVLNKPWRPLTFSPTWLTVSEGANATFTCSFSNWSEDLKLNWYRLSPSNQTEKQAAFCNGYSQPVRDARFQIVQLPNGHDFHMNILDARRNDSGIYLCGAISLPPKAQIKESPGAELVVTERILETPTRYPRPSPKPEGQFQGL

binding result [13]: binds
B2: Rat-PD-L1-Fc-Tag (Creative BioMart) (Fc fusion, not shown: a dimerising Fc or GST; small tags and cut ends)
chain: FTITAPKDLYVVEYGSNVTMECRFPVEQKLDLLALVVYWEKEDKEVIQFVEGEEDLKPQHSSFRGRAFLPKDQLLKGNAVLQITDVKLQDAGVYCCMISYGGADYKRITLKVNAPYRKINQRISMDPATSEHELMCQAEGYPEAEVIWTNSDHQSLSGETTVTTSQTEEKLLNVTSVLRVNATANDVFHCTFWRVHSGENHTAELIIPELPVPRLPHNRTH

Kd [14]: 89 nM
B3: mAb4 (antibody, V domains shown)
VH: QVQLVQSGAEVKKPGASVKVSCKASGYTFTSYWINWVRQAPGQGLEWMGNIYPGSSLTNYNEKFKNRVTMTRDTSTSTVYMELSSLRSEDTAVYYCARLLTGTFAYWGQGTLVTVSS
VL: DIVMTQSPDSLAVSLGERATINCKSSQSLWDSTNQKNFLTWYQQKPGQPPKLLIYWTSTRESGVPDRFSGSGSGTDFTLTISSLQAEDVAVYYCQNDYFYPLTFGGGTKVEIK
notes: Variable regions only
